In publication PMC3166367:

What was measured:
[1] = molecular target: VE-cad(3) fragment (residues Phe210-Phe325), third domain of the extracellular portion of VE-cadherin; assay: SPR
[2] = molecular target: dimeric (β15-44)2 fragment (β15-42 with Cys43 and Gly44 added, dimerized through Cys43); assay: ELISA
[3] = molecular target: VE-cadherin (Homo sapiens) (UniProt P33151); assay: SPR; details: cited from earlier work
Sequence of VE-cadherin (Homo sapiens) (P33151 48-599): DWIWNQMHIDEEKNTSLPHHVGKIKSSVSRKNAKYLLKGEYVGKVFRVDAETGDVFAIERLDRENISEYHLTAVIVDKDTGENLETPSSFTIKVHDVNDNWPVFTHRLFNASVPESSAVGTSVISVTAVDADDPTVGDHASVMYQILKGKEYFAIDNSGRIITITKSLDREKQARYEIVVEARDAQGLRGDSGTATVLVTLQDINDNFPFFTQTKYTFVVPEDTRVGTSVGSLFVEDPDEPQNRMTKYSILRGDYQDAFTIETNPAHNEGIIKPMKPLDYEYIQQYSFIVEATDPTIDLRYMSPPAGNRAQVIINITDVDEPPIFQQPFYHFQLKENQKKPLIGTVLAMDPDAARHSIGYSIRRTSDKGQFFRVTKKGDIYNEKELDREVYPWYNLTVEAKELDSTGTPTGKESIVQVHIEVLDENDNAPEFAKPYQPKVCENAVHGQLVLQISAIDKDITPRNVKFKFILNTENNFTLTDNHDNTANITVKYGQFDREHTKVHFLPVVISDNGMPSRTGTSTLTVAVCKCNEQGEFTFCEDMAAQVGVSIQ

## dimeric (β15-44)2 fragment (β15-42 with Cys43 and Gly44 added, dimerized through Cys43) (peptide)
[1]
  Kd: 715 nM

## VE-cad(3) fragment (residues Phe210-Phe325), third domain of the extracellular portion of VE-cadherin (domain or fragment)
[2]
  Kd: 146 nM

## fibrin fragment (β15-66)2 15-66 (from UniProt P02675)
[3]
  Kd: 80 nM
